In patent US20240173426A1 (Regeneron, published 2024):

T1: human FGFR3b expressed with a C-terminal myc-myc-hexahistidine tag (hFGFR3b.mmH) (human)
T1 construct: monomeric; also called REGN3152; monomeric human FGFR3b
T1 chain: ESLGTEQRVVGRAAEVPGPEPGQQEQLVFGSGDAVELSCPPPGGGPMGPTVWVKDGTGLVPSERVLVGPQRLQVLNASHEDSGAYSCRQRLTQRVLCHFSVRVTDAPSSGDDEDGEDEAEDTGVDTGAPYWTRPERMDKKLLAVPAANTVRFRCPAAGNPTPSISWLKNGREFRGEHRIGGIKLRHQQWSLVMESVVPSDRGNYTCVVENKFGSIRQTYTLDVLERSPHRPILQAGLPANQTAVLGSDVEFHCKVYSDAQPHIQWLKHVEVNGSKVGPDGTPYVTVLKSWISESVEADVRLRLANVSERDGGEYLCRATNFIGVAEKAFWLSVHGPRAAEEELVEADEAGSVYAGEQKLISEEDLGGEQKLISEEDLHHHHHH

T2: murine FGFR3b expressed with a C-terminal myc-myc-hexahistidine tag (mFGFR3b.mmH) (mouse)
T2 construct: monomeric; also called REGN3215; monomeric murine FGFR3b
T2 chain: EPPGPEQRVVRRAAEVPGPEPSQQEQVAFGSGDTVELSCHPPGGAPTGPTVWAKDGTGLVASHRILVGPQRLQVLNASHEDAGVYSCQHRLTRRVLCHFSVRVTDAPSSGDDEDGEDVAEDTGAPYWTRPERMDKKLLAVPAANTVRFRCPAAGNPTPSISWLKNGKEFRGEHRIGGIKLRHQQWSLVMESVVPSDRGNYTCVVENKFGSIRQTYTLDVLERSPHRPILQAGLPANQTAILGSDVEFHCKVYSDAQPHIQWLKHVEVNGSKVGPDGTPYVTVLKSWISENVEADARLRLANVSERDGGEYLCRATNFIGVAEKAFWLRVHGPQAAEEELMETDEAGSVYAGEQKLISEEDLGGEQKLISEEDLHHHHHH

B1: human FGFR3b expressed with a C-terminal murine Fc tag (hFGFR3b.mFc) (Fc fusion)
chain: ESLGTEQRVVGRAAEVPGPEPGQQEQLVFGSGDAVELSCPPPGGGPMGPTVWVKDGTGLVPSERVLVGPQRLQVLNASHEDSGAYSCRQRLTQRVLCHFSVRVTDAPSSGDDEDGEDEAEDTGVDTGAPYWTRPERMDKKLLAVPAANTVRFRCPAAGNPTPSISWLKNGREFRGEHRIGGIKLRHQQWSLVMESVVPSDRGNYTCVVENKFGSIRQTYTLDVLERSPHRPILQAGLPANQTAVLGSDVEFHCKVYSDAQPHIQWLKHVEVNGSKVGPDGTPYVTVLKSWISESVEADVRLRLANVSERDGGEYLCRATNFIGVAEKAFWLSVHGPRAAEEELVEADEAGSVYAGEPRGPTIKPCPPCKCPAPNLLGGPSVFIFPPKIKDVLMISLSPIVTCVVVDVSEDDPDVQISWFVNNVEVHTAQTQTHREDYNSTLRVVSALPIQHQDWMSGKEFKCKVNNKDLPAPIERTISKPKGSVRAPQVYVLPPPEEEMTKKQVTLTCMVTDFMPEDIYVEWTNNGKTELNYKNTEPVLDSDGSYFMYSKLRVEKKNWVERNSYSCSVVHEGLHNHHTTKSFSRTPGK
notes: called dimeric; also called REGN3153; dimeric human FGFR3b

Tests used:
[1] = target: T3, human fibroblast growth factor acidic (hFGF acidic) (human, UniProt P05230 2-155, limits assumed); experiment: ELISA, receptor-Fc on plate-coated hFGF acidic with heparin; fixed concentration said to be chosen near the EC50 of this binding
T3 construct: Bought; coated on the plate with heparin; also called FGF1 acidic
T3 sequence (P05230 2-155 limits assumed, form in doubt): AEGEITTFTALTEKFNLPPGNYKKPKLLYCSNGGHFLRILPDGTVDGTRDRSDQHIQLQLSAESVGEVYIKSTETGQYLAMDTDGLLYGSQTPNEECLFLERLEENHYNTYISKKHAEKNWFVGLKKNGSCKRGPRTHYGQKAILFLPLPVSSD

[2] = target: T4, human fibroblast growth factor basic (hFGF basic) (human, UniProt P09038 144-288); experiment: ELISA, receptor-Fc on plate-coated hFGF basic with heparin; fixed concentration said to be chosen near the EC50 of this binding
T4 construct: Bought; also called Biolegend 571508
T4 sequence (P09038 144-288, form in doubt): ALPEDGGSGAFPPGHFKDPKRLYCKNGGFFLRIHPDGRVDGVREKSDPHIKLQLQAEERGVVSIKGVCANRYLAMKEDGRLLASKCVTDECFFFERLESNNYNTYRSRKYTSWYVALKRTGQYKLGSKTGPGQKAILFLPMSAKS

[3] = target: T1, human FGFR3b expressed with a …; experiment: SPR (Biacore), recombinant human FGFR3 protein
[4] = target: T2, murine FGFR3b expressed with a …; experiment: SPR (Biacore), captured mAb, 25 C
Procedure: (§1) The CM5 Biacore sensor surface was derivatized by amine coupling with a monoclonal mouse anti-human Fc monoclonal antibody (REGN2567). All Biacore binding studies were performed in a buffer composed of 0.01M HEPES pH 7.4, 0.15 M NaCl, 3 mM EDTA, 0.05% v/v Surfactant P20 (HBS-EP running buffer). […] Antibody-reagent association was monitored for 5 minutes while dissociation in HBS-EP running buffer was monitored for 10 minutes. At the end of each cycle, the anti-FGFR3 antibody capture surface was regenerated using a 10 sec injection of 20 mM phosphoric acid. All binding kinetics experiments were performed at 25° C.
(§2) The specific SPR-Biacore sensorgrams were obtained by a double referencing procedure. The double referencing was performed by first subtracting the signal of each injection over a reference surface (anti-hFc) from the signal over the experimental surface (anti-hFc-captured anti-FGFR3 antibodies) thereby removing contributions from refractive index changes. In addition, running buffer injections were performed to allow subtraction of the signal changes resulting from the dissociation of captured antibodies from the coupled anti-hFc surface. Kinetic association (kₐ) and dissociation (kd) rate constants were determined by fitting the real-time sensorgrams to a 1:1 binding model using Scrubber v2.0c curve fitting software.

[5] = target: T5, human FGFR3c expressed with a C-terminal myc-myc-hexahistidine tag (hFGFR3c.mmH) (human, UniProt P22607 23-375); experiment: SPR (Biacore), captured mAb, 25 C
T5 construct: monomeric; also called REGN3155; monomeric human FGFR3c
Procedure: as §1, §2

[6] = target: B1; experiment: SPR (Biacore), captured mAb, 25 C
Procedure: as §1, §2

[7] = target: T1, human FGFR3b expressed with a …; experiment: SPR (Biacore), captured mAb, 25 C
Procedure: as §1, §2

| EC50 [1] [nM] | EC50 [2] [nM] | Kd [3] [nM] | t½ [4] [min] | t½ [5] [min] | t½ [6] [min] | t½ [7] [min] | Binder |
| --- | --- | --- | --- | --- | --- | --- | --- |
| ~4 | – | – | – | – | – | – | B1 |
| ~0.4 | ~7 | – | – | – | – | – | hFGFR3c-hFc (Fc fusion, human, UniProt P22607 23-375, looked up, range 23-375; Bought (R&D Systems); also called human FGFR3c extracellular domain with human IgG1 Fc; R&D Systems 766-FR-050; not shown: Fc portion of human IgG1 at the C-terminus, amino acids Pro100-Lys330) ESLGTEQRVVGRAAEVPGPEPGQQEQLVFGSGDAVELSCPPPGGGPMGPTVWVKDGTGLVPSERVLVGPQRLQVLNASHEDSGAYSCRQRLTQRVLCHFSVRVTDAPSSGDDEDGEDEAEDTGVDTGAPYWTRPERMDKKLLAVPAANTVRFRCPAAGNPTPSISWLKNGREFRGEHRIGGIKLRHQQWSLVMESVVPSDRGNYTCVVENKFGSIRQTYTLDVLERSPHRPILQAGLPANQTAVLGSDVEFHCKVYSDAQPHIQWLKHVEVNGSKVGPDGTPYVTVLKTAGANTTDKELEVLSLHNVTFEDAGEYTCLAGNSIGFSHHSAWLVVLPAEEELVEADEAGSVYAG |
| – | – | 9.06 | 1.2 | 3.5 | 745 | 5.5 | H4H30093P2 (antibody, human IgG4 S228P, kappa, V domains shown) VH: QVQLVESGGGLVKPGGSLRLSCAASGFTFNDYPMSWIRQAPGKGLEWVSYITSSSGSTIYYADSVKGRFTISRDNAKNSLYLQMNSLRAEDTAVYYCAREVVVATIGGYYGMDVWGQGTTVTVSS VL: not shown |
